# Test results from the supplement of paper PMC9732359.
# ± gives the uncertainty stated by the source.
# Assay: protein stability index of a GFP-peptide fusion (yeast GPS) (PSI 1-4); higher = more stable; sorted into four equal gates, so the index is relative within each strain
# Procedure, shortened: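 Plasmids isolated from each sorting gate were PCR-amplified and Illumina-sequenced, and barcodes assigned the reads to strains. The gates, four of equal size, were set by GFP/Cherry fluorescence ratio on mid-log cultures in leucine-free medium. These cultures were yeast carrying a pooled library of tiled 17-residue yeast protein peptides fused downstream of GFP on a plasmid that also expresses Cherry. The protein stability index is the sum of every gate's read frequency times its gate number.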
Sequence,protein stability index (doa10∆),protein stability index (pdr5∆),protein stability index (san1∆),protein stability index (ubr1∆)
MELLTQMDGFDNLGQTK [RPT4],3.53 ± 0.09,3.56 ± 0.11,3.65 ± 0.081,3.44 ± 0.079
MEMSEKIQFILEQMELS [RPN5],–,2.65 ± 0.24,2.35 ± 0.29,2.66 ± 0.19
MERFSVLCNSNISKSRA [RRP6],2.42 ± 0.066,2.46 ± 0.096,1.98 ± 0.084,2.12 ± 0.056
MESIGSDILTAEKMRGN [RRP4],3.1 ± 0.13,3.43 ± 0.12,3.14 ± 0.093,3.34 ± 0.092
MFGIRSGNNNGGFTNLT [YDL088C/ASM4],3.23 ± 0.085,3.41 ± 0.059,3.19 ± 0.054,3.4 ± 0.044
MFIEEPTRMVRVAKGSG [SRP54],3.09 ± 0.19,2.95 ± 0.23,2.75 ± 0.24,3.26 ± 0.15
MFTATMTPVIEKIAAGY [PRP28],2.2 ± 0.13,1.81 ± 0.11,1.5 ± 0.15,2.35 ± 0.076
MGAINNNIPSLTSFAEE [SNF6],3.2 ± 0.13,3.43 ± 0.1,3.37 ± 0.15,3.35 ± 0.1
MGRMHSAGKGISSSAIP [RPS13],2.74 ± 0.043,2.61 ± 0.068,3.11 ± 0.048,2.88 ± 0.041
MHRKSLRRASATVPSAP [YAR002W/NUP60],2.64 ± 0.071,2.82 ± 0.092,2.39 ± 0.064,2.74 ± 0.063
MIELICSSATVPKHMLD [AAR2],1.85 ± 0.082,2.26 ± 0.078,1.82 ± 0.11,1.94 ± 0.058
MIFETIVDGKLKTEKIF [FAS1],1.8 ± 0.07,2.21 ± 0.12,1.89 ± 0.1,2.17 ± 0.08
MKESVVEINSSESDLDE [ESC2],3.35 ± 0.071,3.06 ± 0.086,3.06 ± 0.079,3.16 ± 0.068
MKVEVDSFSGAKIYPGR [RPL24B],3.11 ± 0.18,3.36 ± 0.15,2.52 ± 0.18,2.92 ± 0.18
MKYIQTEQQIEIPEGVT [RPL9B],2.4 ± 0.059,2.8 ± 0.063,2.39 ± 0.064,2.64 ± 0.053
MLGEDEGNTVLEKGNNP [SWP82],3.67 ± 0.13,3.22 ± 0.19,3.11 ± 0.099,3.69 ± 0.16
MLPGSSNGGGKVKPIRG [RPO31],3 ± 0.073,3.36 ± 0.13,3.15 ± 0.076,3.07 ± 0.068
MLRTVTSKTVSNQFKRS [COR1],3.11 ± 0.15,2.9 ± 0.092,2.92 ± 0.083,3.02 ± 0.1
MLSFCPSCNNMLLITSG [RPC11],1.26 ± 0.082,2.97 ± 0.13,–,2.83 ± 0.072
MLVDLNVPWPQNSYADK [RPP1],1.59 ± 0.27,1.08 ± 0.14,–,1.12 ± 0.15
MLWGGASMLGLFVFTEG [QCR10],1.96 ± 0.14,1.82 ± 0.11,2.43 ± 0.26,3.19 ± 0.2
MNAGGLFGAKPQNTTAT [YGR119C/NUP57],2.43 ± 0.049,3.29 ± 0.059,3.35 ± 0.058,2.72 ± 0.059
MNECIADQDMEDEDMVD [ESC2],3.18 ± 0.072,3.35 ± 0.11,3.3 ± 0.048,3.08 ± 0.058
MNEMCKKINAKEKLIGW [RPN8],2.86 ± 0.043,3.13 ± 0.056,3.03 ± 0.046,3.08 ± 0.031
MNIKPVQKQTRAGQRTR [RPS2],2.67 ± 0.1,2.81 ± 0.11,1.92 ± 0.089,2.58 ± 0.073
MNKIFTIFKSGEIDFIK [YML103C/NUP188],2.51 ± 0.091,2.62 ± 0.054,2.41 ± 0.075,2.59 ± 0.06
MNLVLNECIEERVPKTQ [SMB1],2.3 ± 0.23,–,–,–

Sequence,protein stability index (doa10∆),protein stability index (pdr5∆),protein stability index (san1∆),protein stability index (ubr1∆)
MNVQDRRRLLGPAAAKP [MTR3],3.23 ± 0.11,3.1 ± 0.11,2.96 ± 0.085,2.97 ± 0.089
MPGGYFHSEISPDSTVN [YAR002W/NUP60],2.56 ± 0.076,3 ± 0.095,2.54 ± 0.061,2.76 ± 0.063
MPLKILLATKQHDSSAN [CSN12],2.48 ± 0.076,1.97 ± 0.044,2.09 ± 0.063,2.27 ± 0.044
MPRLEEIDDFNDIDDLD [SEC65],2.71 ± 0.1,3.09 ± 0.1,2.9 ± 0.088,3.23 ± 0.12
MQLEEELMKLDGTEYVL [MED6],3.26 ± 0.15,3.4 ± 0.11,3.21 ± 0.091,3.26 ± 0.076
MQNSKVESVCQKLDILV [SMC4],2.26 ± 0.065,2.13 ± 0.059,2.3 ± 0.088,1.87 ± 0.056
MQPFDSGHDDLVHDVVY [YGL100W/SEH1],3.23 ± 0.1,3.43 ± 0.11,3.13 ± 0.084,3.26 ± 0.093
MRAKWRKKRTRRLKRKR [RPL41A],3.47 ± 0.16,3.06 ± 0.13,3.34 ± 0.16,3.44 ± 0.15
MSAPTMRSTSILTEHLG [MTW1],–,–,2.87 ± 0.24,–
MSEEGPQVKIREASKDN [RPB3],3.18 ± 0.13,2.44 ± 0.039,2.94 ± 0.096,3.08 ± 0.083
MSFIFPSYAERQSSDES [YML031W/NDC1],2.58 ± 0.051,2.04 ± 0.048,2.74 ± 0.066,2.5 ± 0.046
MSGLPPPPPGFEEDSDL [PRP8],3.19 ± 0.11,3.37 ± 0.083,3.13 ± 0.075,3.31 ± 0.078
MSIDEEDKDSESFSEVC [YCG1],2.71 ± 0.15,2.34 ± 0.09,2.48 ± 0.15,2.43 ± 0.067
MSLKKCQEEVSTIEKDM [SMC2],2.48 ± 0.1,2.73 ± 0.12,2.75 ± 0.14,2.79 ± 0.2
MSNVVQARDNSQVFGVA [RPS14A],1.89 ± 0.06,2.11 ± 0.056,1.94 ± 0.083,2.05 ± 0.041
MSSQIIDRPKHELSRAE [SMD2],3.14 ± 0.093,3.46 ± 0.12,3.2 ± 0.11,3.25 ± 0.11
MSVKPIDNYITNSVRLF [SRP21],1.94 ± 0.076,1.91 ± 0.06,1.56 ± 0.068,1.63 ± 0.079
MSYVVRILSTLDRELLK [RPT3],2.31 ± 0.098,2.24 ± 0.1,2.55 ± 0.057,2.88 ± 0.094
MTDIWNTLIPESSLTIS [ECM29],2.22 ± 0.064,2.46 ± 0.054,2.14 ± 0.1,2.87 ± 0.058
MTEHETKDKAKKIREIY [BRR2],2.6 ± 0.17,2.69 ± 0.11,2.27 ± 0.18,2.35 ± 0.1
MTIPHMKYAVSKTSENK [SIR2],3.14 ± 0.12,3.07 ± 0.16,2.75 ± 0.11,3.06 ± 0.1
MTTEDPDSNHLSSETGI [SRB4],3.15 ± 0.12,2.85 ± 0.2,3.37 ± 0.076,3.04 ± 0.081
MVHLYSIVEECDARFDE [RPC17],3.04 ± 0.12,2.94 ± 0.078,3.01 ± 0.099,2.74 ± 0.18
MVLYKRKPILLPDPKPL [ITC1],2.88 ± 0.067,2.85 ± 0.065,2.75 ± 0.067,2.66 ± 0.055
MVNSHGIRYIRLKQVFN [NNF1],1.46 ± 0.048,1.67 ± 0.04,1.88 ± 0.19,1.81 ± 0.052
MVVNGPIPDARNAALRA [SCL1],2.38 ± 0.14,2.72 ± 0.11,2.36 ± 0.13,2.35 ± 0.091
